Measured values taken from paper PMC9482650, “Quantitative fragmentomics allow affinity mapping of interactomes” (Nature Communications, 2022).

T1: PTPN13_1, Q12923
T1 sequence (Q12923 1088-1188, limits assumed, looked up): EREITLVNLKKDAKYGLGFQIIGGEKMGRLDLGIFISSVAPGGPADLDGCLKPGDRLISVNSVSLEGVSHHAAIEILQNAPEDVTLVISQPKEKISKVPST

T2: HTRA3, P83110
T2 sequence (P83110 354-453, limits assumed, looked up): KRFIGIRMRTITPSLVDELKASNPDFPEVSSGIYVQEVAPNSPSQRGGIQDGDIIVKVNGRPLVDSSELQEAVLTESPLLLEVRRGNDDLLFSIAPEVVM

T3: GRIP1_4, Q9Y3R0
T3 sequence (Q9Y3R0 467-571, limits assumed, looked up): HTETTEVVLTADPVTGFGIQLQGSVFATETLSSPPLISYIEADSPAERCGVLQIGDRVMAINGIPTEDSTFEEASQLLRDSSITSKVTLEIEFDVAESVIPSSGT

T4: PARD3B_1, Q8TEW8
T4 sequence (Q8TEW8 196-299, limits assumed, looked up): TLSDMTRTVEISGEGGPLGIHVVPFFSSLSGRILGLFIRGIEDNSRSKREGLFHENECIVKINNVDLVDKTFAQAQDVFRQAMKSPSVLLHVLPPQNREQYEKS

T5: LIN7B, Q9HAP6
T5 sequence (Q9HAP6 88-185, limits assumed, looked up): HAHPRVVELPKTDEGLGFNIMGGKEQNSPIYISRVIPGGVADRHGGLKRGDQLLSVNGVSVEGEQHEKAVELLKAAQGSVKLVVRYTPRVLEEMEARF

T6: RHPN1, Q8TCX5
T6 sequence (Q8TCX5 508-602, limits assumed, looked up): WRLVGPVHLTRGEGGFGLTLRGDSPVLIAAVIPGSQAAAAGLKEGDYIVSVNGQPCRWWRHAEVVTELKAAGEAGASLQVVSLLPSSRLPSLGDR

T7: DLG3_2, Q92796
T7 sequence (Q92796 221-321, limits assumed, looked up): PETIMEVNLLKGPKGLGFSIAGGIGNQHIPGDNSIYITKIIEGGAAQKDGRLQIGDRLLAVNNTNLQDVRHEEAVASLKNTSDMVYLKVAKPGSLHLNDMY

T8: GRIP1_2, Q9Y3R0
T8 sequence (Q9Y3R0 145-248, limits assumed, looked up): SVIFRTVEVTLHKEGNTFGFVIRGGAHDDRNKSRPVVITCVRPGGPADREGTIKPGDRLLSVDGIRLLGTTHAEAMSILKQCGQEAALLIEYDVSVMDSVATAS

T9: SYNJ2BP, P57105
T9 sequence (P57105 8-110, limits assumed, looked up): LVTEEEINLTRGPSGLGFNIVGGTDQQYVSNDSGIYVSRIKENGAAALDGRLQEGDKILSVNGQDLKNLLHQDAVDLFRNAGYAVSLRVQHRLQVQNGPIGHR

T10: DLG3_3, Q92796
T10 sequence (Q92796 374-475, limits assumed, looked up): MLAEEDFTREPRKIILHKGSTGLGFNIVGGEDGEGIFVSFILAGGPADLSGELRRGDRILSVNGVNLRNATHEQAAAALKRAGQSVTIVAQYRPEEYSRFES

T11: DFNB31_2, Q9P202
T11 sequence (Q9P202 274-371, limits assumed, looked up): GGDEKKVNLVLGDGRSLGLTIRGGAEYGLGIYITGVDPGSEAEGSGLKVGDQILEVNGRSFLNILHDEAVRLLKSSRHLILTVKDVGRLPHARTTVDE

T12: MPDZ_10, O75970
T12 sequence (O75970 1624-1722, limits assumed, looked up): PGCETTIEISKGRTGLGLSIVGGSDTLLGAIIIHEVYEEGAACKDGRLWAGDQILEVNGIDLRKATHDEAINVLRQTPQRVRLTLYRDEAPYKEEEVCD


Legend:
Test in all cases: holdup assay
Parameters in all cases: key: below the threshold = too weak to quantify, mostly under pKd 3.1 to 4
Conditions in all cases: plain residues with an end cap or a label only (N-terminal biotin on a linker: ado-ado)
DLG4_2, P78352 = target: DLG4_2, P78352
NOS1, P29475 = target: NOS1, P29475
PTPN13_1, Q12923 = target: T1, PTPN13_1, Q12923
HTRA3, P83110 = target: T2, HTRA3, P83110
TJP2_1, Q9UDY2 = target: TJP2_1, Q9UDY2
GRIP1_4, Q9Y3R0 = target: T3, GRIP1_4, Q9Y3R0
PARD3B_1, Q8TEW8 = target: T4, PARD3B_1, Q8TEW8
LAP2, Q96RT1 = target: LAP2, Q96RT1
LIN7B, Q9HAP6 = target: T5, LIN7B, Q9HAP6
GORASP2, Q9H8Y8 = target: GORASP2, Q9H8Y8
RHPN1, Q8TCX5 = target: T6, RHPN1, Q8TCX5
TJP1_3, Q07157 = target: TJP1_3, Q07157
IL16_1, Q14005 = target: IL16_1, Q14005
Inadl_10, Q8NI35 = target: Inadl_10, Q8NI35
DLG3_2, Q92796 = target: T7, DLG3_2, Q92796
HTRA1, Q92743 = target: HTRA1, Q92743
NHERF4_4, Q86UT5 = target: NHERF4_4, Q86UT5
GRIP1_2, Q9Y3R0 = target: T8, GRIP1_2, Q9Y3R0
SYNJ2BP, P57105 = target: T9, SYNJ2BP, P57105
DLG3_3, Q92796 = target: T10, DLG3_3, Q92796
DFNB31_2, Q9P202 = target: T11, DFNB31_2, Q9P202
MPDZ_10, O75970 = target: T12, MPDZ_10, O75970
DLG2_2, Q15700 = target: DLG2_2, Q15700
Inadl_5, Q8NI35 = target: Inadl_5, Q8NI35
Inadl_9, Q8NI35 = target: Inadl_9, Q8NI35
Inadl_9, Q8NI35, sequence (Q8NI35 1530-1615): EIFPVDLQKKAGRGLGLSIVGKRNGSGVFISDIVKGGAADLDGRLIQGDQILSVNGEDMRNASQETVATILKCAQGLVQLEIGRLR

TJP1_3, Q07157, sequence (Q07157 416-512): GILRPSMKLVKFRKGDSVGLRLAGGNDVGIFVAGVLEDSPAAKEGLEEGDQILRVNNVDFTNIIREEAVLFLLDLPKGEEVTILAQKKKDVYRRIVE
NHERF4_4, Q86UT5, sequence (Q86UT5 464-550): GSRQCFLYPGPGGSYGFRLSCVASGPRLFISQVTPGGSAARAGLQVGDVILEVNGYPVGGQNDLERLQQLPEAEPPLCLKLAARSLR
IL16_1, Q14005, sequence (Q14005 210-306): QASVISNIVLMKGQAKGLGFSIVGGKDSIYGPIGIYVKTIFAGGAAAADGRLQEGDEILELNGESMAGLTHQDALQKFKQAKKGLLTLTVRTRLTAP
TJP2_1, Q9UDY2, sequence (Q9UDY2 24-128): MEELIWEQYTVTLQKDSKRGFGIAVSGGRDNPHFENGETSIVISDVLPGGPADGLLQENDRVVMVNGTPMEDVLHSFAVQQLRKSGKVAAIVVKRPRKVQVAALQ
NOS1, P29475, sequence (P29475 9-101): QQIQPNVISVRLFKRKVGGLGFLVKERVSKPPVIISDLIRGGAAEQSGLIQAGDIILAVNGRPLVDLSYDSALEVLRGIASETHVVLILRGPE
HTRA1, Q92743, sequence (Q92743 360-477): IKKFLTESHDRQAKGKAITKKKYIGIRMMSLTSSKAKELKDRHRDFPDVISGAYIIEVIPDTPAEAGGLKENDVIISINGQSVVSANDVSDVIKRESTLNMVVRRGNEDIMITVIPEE
Inadl_5, Q8NI35, sequence (Q8NI35 673-780): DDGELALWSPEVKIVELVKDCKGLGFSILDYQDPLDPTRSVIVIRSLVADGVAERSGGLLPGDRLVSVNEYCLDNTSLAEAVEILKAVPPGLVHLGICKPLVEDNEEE
DLG2_2, Q15700, sequence (Q15700 189-283): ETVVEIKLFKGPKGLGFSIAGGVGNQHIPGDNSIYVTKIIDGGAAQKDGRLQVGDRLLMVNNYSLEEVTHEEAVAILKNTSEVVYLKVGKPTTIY
Inadl_10, Q8NI35, sequence (Q8NI35 1673-1763): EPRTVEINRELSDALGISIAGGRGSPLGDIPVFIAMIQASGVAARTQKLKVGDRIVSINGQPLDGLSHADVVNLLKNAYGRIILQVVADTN
DLG4_2, P78352, sequence (P78352 155-259): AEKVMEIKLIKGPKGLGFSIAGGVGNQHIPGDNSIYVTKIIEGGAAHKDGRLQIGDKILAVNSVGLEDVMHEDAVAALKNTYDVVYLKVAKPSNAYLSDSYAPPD
LAP2, Q96RT1, sequence (Q96RT1 other isoform, or with tags, fused parts or gaps): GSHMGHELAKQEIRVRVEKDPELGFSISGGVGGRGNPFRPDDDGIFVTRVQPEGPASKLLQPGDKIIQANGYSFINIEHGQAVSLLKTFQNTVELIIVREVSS

Binder | pKd (DLG4_2, P78352) | pKd (NOS1, P29475) | pKd (PTPN13_1, Q12923) | pKd (HTRA3, P83110) | pKd (TJP2_1, Q9UDY2) | pKd (GRIP1_4, Q9Y3R0) | pKd (PARD3B_1, Q8TEW8) | pKd (LAP2, Q96RT1) | pKd (LIN7B, Q9HAP6) | pKd (GORASP2, Q9H8Y8) | pKd (RHPN1, Q8TCX5) | pKd (TJP1_3, Q07157) | pKd (IL16_1, Q14005) | pKd (Inadl_10, Q8NI35) | pKd (DLG3_2, Q92796) | pKd (HTRA1, Q92743) | pKd (NHERF4_4, Q86UT5) | pKd (GRIP1_2, Q9Y3R0) | pKd (SYNJ2BP, P57105) | pKd (DLG3_3, Q92796) | other results
MLPANYVEAI [NEB, P20929] | below the threshold | 3.52 | below the threshold | below the threshold | below the threshold | below the threshold | below the threshold | below the threshold | 3.69 | 4.31 | below the threshold | below the threshold | below the threshold | below the threshold | 4.11 | 4.03 | below the threshold | below the threshold | below the threshold | below the threshold | pKd (DFNB31_2, Q9P202): below the threshold; pKd (MPDZ_10, O75970): below the threshold; pKd (DLG2_2, Q15700): below the threshold; pKd (Inadl_5, Q8NI35): below the threshold; pKd (Inadl_9, Q8NI35): below the threshold
ADEMICITTL [CACNA1D, Q01668] | 4.02 | 3.58 | below the threshold | below the threshold | below the threshold | below the threshold | 4.84 | 3.66 | 3.95 | 4.05 | 5.05 | below the threshold | below the threshold | 4.42 | 4.46 | 5.79 | 3.73 | below the threshold | 4.24 | below the threshold | pKd (DFNB31_2, Q9P202): below the threshold; pKd (MPDZ_10, O75970): below the threshold; pKd (DLG2_2, Q15700): 3.81; pKd (Inadl_5, Q8NI35): below the threshold; pKd (Inadl_9, Q8NI35): below the threshold
NISARRFTLC [FAM167B, Q9BTA0] | 4.13 | 3.81 | below the threshold | 4.54 | 4.76 | below the threshold | below the threshold | below the threshold | 4.08 | 3.9 | below the threshold | below the threshold | below the threshold | below the threshold | 4.42 | 4.47 | below the threshold | below the threshold | 3.75 | 4.25 | pKd (DFNB31_2, Q9P202): below the threshold; pKd (MPDZ_10, O75970): below the threshold; pKd (DLG2_2, Q15700): 3.79; pKd (Inadl_5, Q8NI35): below the threshold; pKd (Inadl_9, Q8NI35): below the threshold
LVEEEEPMNL [HDAC7, Q8WUI4] | below the threshold | below the threshold | below the threshold | below the threshold | below the threshold | below the threshold | below the threshold | below the threshold | below the threshold | below the threshold | below the threshold | below the threshold | below the threshold | below the threshold | below the threshold | 4.16 | 3.78 | below the threshold | below the threshold | below the threshold | pKd (DFNB31_2, Q9P202): below the threshold; pKd (MPDZ_10, O75970): below the threshold; pKd (DLG2_2, Q15700): below the threshold; pKd (Inadl_5, Q8NI35): below the threshold; pKd (Inadl_9, Q8NI35): below the threshold
RSPVATATSC [DUSP5, Q16690] | below the threshold | below the threshold | below the threshold | 3.89 | below the threshold | below the threshold | below the threshold | below the threshold | 3.68 | below the threshold | below the threshold | below the threshold | below the threshold | below the threshold | 4.18 | below the threshold | below the threshold | below the threshold | below the threshold | below the threshold | pKd (DFNB31_2, Q9P202): below the threshold; pKd (MPDZ_10, O75970): below the threshold; pKd (DLG2_2, Q15700): below the threshold; pKd (Inadl_5, Q8NI35): below the threshold; pKd (Inadl_9, Q8NI35): below the threshold
TKDKVQETQI [LRRC4, Q9HBW1] | 4.76 | 4.02 | below the threshold | below the threshold | below the threshold | below the threshold | 3.76 | 3.54 | 3.74 | 3.57 | 4.84 | below the threshold | 3.54 | below the threshold | 4.57 | below the threshold | 3.95 | below the threshold | 4.75 | 3.98 | pKd (DFNB31_2, Q9P202): 3.71; pKd (MPDZ_10, O75970): below the threshold; pKd (DLG2_2, Q15700): 4.67; pKd (Inadl_5, Q8NI35): below the threshold; pKd (Inadl_9, Q8NI35): below the threshold
